US20240190923A1
Several values for one entry are separate records, joined by “and”; a condition that tells them apart may be missing. Identical values can stand only once.

B1: C. atrox FETUA-5 (recombinant, tag-free) (protein)
chain: YMVREEDLNCNSKAAKYRADQAVRYINEHNLHGYKQALNIIKTIRLLPSDGLLVVIYLKLNLLETECHVLDPTPVENCTVRQQNNHAVETDCDVKVIYNIETFKDEFLVKCHSTPGSVEKILQDCPKCPILLSLSDPHVVDSVEYVLNKHNEQLSGHVYEVLEISRGQHKYEPEAFYVEFAIVEVNCTAQEAHDDHHHCHPNTAGENHIAFCRATVFRSYASLEKPKDEKFESDCVILHVKEGHAHSHLIEHHTGKHSTSPGHNSTVLNLAHSHNHTSASHESHSHEHVMEVPVAVANREDPTDIPHHHTPSVDGCPGKVLHFKL
B2: C. atrox FETUA-3 (recombinant, tag-free) (protein)
chain: FQLAGNMDCNTKGTKDWADIGVRYINEHKLHGYKQALNIIKIFRLLPSDGRSVIFHFKLNLLETECHVLDPTPLENCTVRQQNNHAVEMDCNVRIIHDIATFEDEVFVKCNSTPDSVENVRRNCPKCPILLPPNDPHVIDSVEYVLNKHNEKLSGHIYEVLEISRGQHKYEPEAFYVEFAIVEVNCTAEEAHDDHHDCHPNTDGENHIGFCRATVFRSHASLEKPKEEMFESDCVILHVKKGHAYSHLIEHHVGKYNTSPGRNSTDECVVQCPVAFVNKEVPKDISDHDTPPVEGCPGKALHFQL

Assays:
Test in all cases: cell-based or functional assay
[1] = molecular target: MDC-4 (Crotalus atrox) (UniProt Q90282)
Sequence of UniProt Q90282 (Q90282 190-609 limits assumed): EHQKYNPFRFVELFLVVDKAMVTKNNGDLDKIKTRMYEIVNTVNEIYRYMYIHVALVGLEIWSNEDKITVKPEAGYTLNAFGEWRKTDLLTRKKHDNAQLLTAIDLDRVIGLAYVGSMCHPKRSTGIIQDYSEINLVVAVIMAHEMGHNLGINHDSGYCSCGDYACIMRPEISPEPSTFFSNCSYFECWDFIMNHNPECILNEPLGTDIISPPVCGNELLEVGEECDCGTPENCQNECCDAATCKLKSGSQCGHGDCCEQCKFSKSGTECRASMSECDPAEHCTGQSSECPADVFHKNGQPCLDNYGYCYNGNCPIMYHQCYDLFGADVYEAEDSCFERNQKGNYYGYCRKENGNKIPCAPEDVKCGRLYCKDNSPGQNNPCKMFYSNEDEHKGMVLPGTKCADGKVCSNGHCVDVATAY

[2] = molecular target: whole C. atrox venom (SVMP proteolytic activity)
[3] = molecular target: whole C. atrox venom (SVMP proteolytic activity); remark: listed apart in the source

Row | Molecule | amount for ˜50% neutralization of 2 µg MDC-4 proteolysis of Azocoll [1] | weight of CroFab relative to FETUA-3 for ˜50% neutralization of MDC-4 [1] | weight of CroFab relative to FETUA-3 for approximately 50% neutralization of whole venom SVMP activity [2] | inhibition of whole venom proteolysis of Azocoll collagen substrate (10 µg venom) [3]
1 | CroFab antivenom (crotalidae polyvalent immune fab ovine) | 12.1 µg | 16 fold | 18 fold | –
2 | B1 | – | – | – | 20 µg
3 | B2 | – | – | – | 2.5 µg and 5 µg
